In patent US20160082105A1, “Antibody Buffering of a Ligand in Vivo” (ARROWSMITH TECHNOLOGIES CORPORATION, priority 2004, published 2016):

Experiments:
[1] = Antibody buffering of lysozyme: total 14C-lysozyme in rat plasma; type: in vivo
Protocol: (§1) Rats (300 g Sprague-Dawley males, Zivic Laboratories, Zelionople, Pa.) were implanted with a jugular vein cannula. The rats were freely moving throughout the experiment and were allowed access to food and water. Samples were prepared for infusion consisting of 43 μg ^14C-lysozyme with or without 450 μg D1.3 antibody. The volume was brought to 1 ml using sterile normal saline and the sample was incubated at 37° C. prior to use. The sample was infused through the jugular cannula over 5 minutes using an HP infusion pump. Following the infusion, the cannula was flushed with 0.2 ml of heparinized saline (250 units/ml) to reduce the risk of clotting. […] Blood samples (0.5 ml) were withdrawn from the cannula at various timepoints. The blood was immediately centrifuged to separate out the plasma. Plasma (0.1 ml) was mixed with 5 ml scintillation fluid and counted. Another 0.1 ml was used in bound vs. free lysozyme experiments described herein. The cellular pellet was mixed with scintillation fluid and counted also.
Sprague-Dawley rats implanted with a jugular cannula were infused with 43 μg ^14C-lysozyme and either 450 μg or 900 μg of D1.3 antibody. The volume infused was brought up to 1 ml using sterile normal saline. The samples were prepared and infused and timepoints were taken and analyzed as described above. Bound vs. free separation analyses were not performed.
Sprague-Dawley rats implanted with a jugular cannula were infused with 450 μg of D1.3 antibody and either 43 μg or 430 μg of ^14C-lysozyme. The samples were prepared, infused, and timepoints were taken and analyzed as described above.
Two samples were prepared for infusion. The first sample, consisting of 450 μg D1.3 antibody diluted to 0.5 ml with sterile normal saline, was infused over 4 minutes using an HP infusion pump. The rat was allowed to move freely in its cage for 10 minutes to allow the antibody time to equilibrate within the circulation. Then the second sample, consisting of 43 μg ^14C-lysozyme made up to 0.5 ml using sterile normal saline, was infused over 4 minutes. The end of the second infusion was designated as time zero (0). Blood samples were taken and analyzed as described above.
To determine the pharmacokinetic profile of lysozyme using a radioactive method of lysozyme detection, ^14C-lysozyme was infused through a jugular cannula into the bloodstream of a rat. Lysozyme elimination was followed through blood sampling at various time intervals spanning 4 hours. The plasma was collected after centrifugation and subjected to scintillation counting. […] Each rat in these and in the following studies was used only once to limit the possibility of an immune response to either the lysozyme or the antibody.

[2] = Antibody buffering of lysozyme: free lysozyme in plasma after Protein A-Sepharose separation; type: in vivo, rat; conditions: lysozyme administered with D1.3, compared with lysozyme alone
Protocol: as §1
Following blood sample centrifugation to separate out the plasma, 0.1 ml of plasma was loaded onto a 1.5 ml Protein A-Sepharose mini-column. The column was washed with 3 ml of PBS in 0.5 ml increments followed by 3 ml of 100 mM citric acid in 0.5 ml increments. The PBS (free lysozyme) and citric acid (antibody-bound lysozyme) fractions were collected separately for each timepoint. […]

## lysozyme: hen egg lysozyme radioactively labeled with 14C, model protein ligand
[1]; 14C-lysozyme administered alone, jugular infusion
  plasma β-half life of lysozyme: 16.4 min
[1]; 14C-lysozyme alone or with D1.3
  radioactivity in the cellular pellet of blood: Little radioactivity
[1]; 14C-lysozyme with equimolar D1.3
  plasma β-half life of lysozyme: 42.8 min
[1]; 14C-lysozyme with two times the molar amount of D1.3
  plasma β-half life of lysozyme: 61.3 min
[1]; D1.3 with ten times the molar concentration of 14C-lysozyme
  total lysozyme level in plasma at later timepoints relative to equimolar group: about twice as high
[1]; equimolar lysozyme infused ten minutes after D1.3
  total lysozyme concentration in plasma after sequential administration: quickly equilibrated to a level very similar to that attained when the D1.3 and lysozyme were administered together
[2]
  free lysozyme pool in plasma: remained at a more constant level
